# Experimental data: patent US20090142372A1
# Tests used:
# [1] = molecular target: vBSP-2 anchored on carrier bacteria (human; Listeria monocytogenes) (UniProt P21815); assay: flow cytometry of carrier bacteria displaying vBSP-2, after deactivation
# [2] = molecular target: fusion peptide of pIUSind-mBSP5x anchored on Listeria (human; Listeria monocytogenes); assay: flow cytometry of carrier bacteria displaying the eBSP 5-fold multimer, before deactivation
# [3] = molecular target: vBSP-3 anchored on carrier bacteria (human; Listeria monocytogenes) (UniProt P21815); assay: flow cytometry of carrier bacteria displaying vBSP-3, before deactivation
# [4] = molecular target: fusion peptide of pIUSind-mBSP5x anchored on Listeria (human; Listeria monocytogenes); assay: flow cytometry of carrier bacteria displaying the eBSP 5-fold multimer, after deactivation
# [5] = molecular target: vBSP-4 anchored on carrier bacteria (human; Listeria monocytogenes) (UniProt P21815); assay: flow cytometry of carrier bacteria displaying vBSP-4, after deactivation
# [6] = molecular target: vBSP-2 anchored on carrier bacteria (human; Listeria monocytogenes) (UniProt P21815); assay: flow cytometry of carrier bacteria displaying vBSP-2, before deactivation
# [7] = molecular target: fusion peptide of pIUSind-mBSP5x anchored on Listeria (human; Listeria monocytogenes); assay: flow cytometry of carrier bacteria displaying eBSP pentamer, BHI and minimal medium (FIG. 9, 10; tumor-epitope specific rabbit antibodies)
# [8] = molecular target: vBSP-3 anchored on carrier bacteria (human; Listeria monocytogenes) (UniProt P21815); assay: flow cytometry of carrier bacteria displaying vBSP-3, after deactivation
# [9] = molecular target: fusion peptide of pIUSind-mBSP6x anchored on Listeria (human; Listeria monocytogenes); assay: flow cytometry of carrier bacteria displaying the eBSP 6-fold multimer, before deactivation
# [10] = molecular target: fusion peptide of pIUSind-mBSP3x anchored on Listeria (human; Listeria monocytogenes) (UniProt Q723K6); assay: flow cytometry of deactivated carrier bacteria displaying the 3-fold multimer (FIG. 11; rabbit tumor eBSP antiserum)
# [11] = molecular target: vBSP-4 anchored on carrier bacteria (human; Listeria monocytogenes) (UniProt P21815); assay: flow cytometry of carrier bacteria displaying vBSP-4, before deactivation
# [12] = molecular target: fusion peptide of pIUSind-mBSP5x anchored on Listeria (human; Listeria monocytogenes); assay: flow cytometry of deactivated carrier bacteria displaying the 5-fold multimer (FIG. 11; rabbit tumor eBSP antiserum)
# [13] = molecular target: eBSP tumor epitope fused to a bacterial carrier protein, anchored on carrier bacteria (human; Listeria monocytogenes); assay: flow cytometry of carrier bacteria displaying the eBSP-carrier fusion (FIG. 7B)
# [14] = molecular target: fusion peptide of pIUSind-mBSP6x anchored on Listeria (human; Listeria monocytogenes); assay: flow cytometry of carrier bacteria displaying the eBSP 6-fold multimer, after deactivation
# [15] = molecular target: vBSP-3 anchored on carrier bacteria (human; Listeria monocytogenes) (UniProt P21815); assay: flow cytometry of deactivated carrier bacteria displaying vBSP-3, grown in minimal medium (FIG. 5B)
# [16] = molecular target: fusion peptide of pIUSind-mBSP1x anchored on Listeria (human; Listeria monocytogenes) (UniProt Q723K6); assay: flow cytometry of carrier bacteria displaying eBSP monomer, BHI and minimal medium (FIG. 9, 10; tumor-epitope specific rabbit antibodies)
# [17] = molecular target: vBSP-3 anchored on carrier bacteria (human; Listeria monocytogenes) (UniProt P21815); assay: flow cytometry of carrier bacteria displaying vBSP-3, grown in BHI and minimal media, before deactivation (FIG. 4A and B)
# [18] = molecular target: fusion peptide of pIUSind-mBSP4x anchored on Listeria (human; Listeria monocytogenes) (UniProt Q723K6); assay: flow cytometry of deactivated carrier bacteria displaying the 4-fold multimer (FIG. 11; rabbit tumor eBSP antiserum)
# [19] = molecular target: fusion peptide of pIUSind-mBSP6x anchored on Listeria (human; Listeria monocytogenes); assay: flow cytometry of deactivated carrier bacteria displaying the 6-fold multimer (FIG. 11; rabbit tumor eBSP antiserum)
substance,measurement,setting,value
"Anti-Human Bone Sialoprotein (amino acids 108-122) Antibody, polyclonal antiserum, Immundiagnostik AG, Cat.-No. A4219.2, Lot H3150503",anchoring efficiency (proportion of positive bacteria in FACS),[1],65%
same,anchoring efficiency (proportion of positive bacteria in FACS),[2],42.5%
same,anchoring efficiency (proportion of positive bacteria in FACS),[3],52.3%
same,anchoring efficiency (proportion of positive bacteria in FACS),[4],40.1%
same,anchoring efficiency (proportion of positive bacteria in FACS),[5],67.8%
same,anchoring efficiency (proportion of positive bacteria in FACS),[6],58.4%
same,anchoring efficiency (proportion of positive bacteria in FACS),[7],> 40%
same,anchoring efficiency (proportion of positive bacteria in FACS),[8],63.9%
same,anchoring efficiency (proportion of positive bacteria in FACS),[9],34.2%
same,anchoring efficiency (proportion of positive bacteria in FACS),[10],> 40%
same,anchoring efficiency (proportion of positive bacteria in FACS),[11],57.8%
same,anchoring efficiency (proportion of positive bacteria in FACS),[12],> 40%
same,anchoring efficiency (proportion of positive bacteria in FACS),[13],6 to 7%
same,anchoring efficiency (proportion of positive bacteria in FACS),[14],46.5%
same,anchoring efficiency (proportion of positive bacteria in FACS),[15],41%
same,anchoring efficiency (proportion of positive bacteria in FACS),[16],< 10%
same,anchoring efficiency (proportion of positive bacteria in FACS),[17],> 52%
same,anchoring efficiency (proportion of positive bacteria in FACS),[18],> 40%
same,anchoring efficiency (proportion of positive bacteria in FACS),[19],> 40%
